Results published in PMC6155126 (Nature Communications, 2018).

Molecular target: FLAG-Pol λ-WT (human, UniProt Q9UGP5 1-575)
Assay: cell-based or functional assay

- Pol λ-dependent gap filling synthesis on a 5nt-gapped dsDNA (33-mer), stimulation by added protein over a concentration series: ≤ 10 fold
B1: FLAG-XRCC4 (natural protein, human, UniProt Q13426 1-336, looked up)
chain: MERKISRIHLVSEPSITHFLQVSWEKTLESGFVITLTDGHSAWTGTVSESEISQEADDMAMEKGKYVGELRKALLSGAGPADVYTFNFSKESCYFFFEKNLKDVSFRLGSFNLEKVENPAEVIRELICYCLDTIAENQAKNEHLQKENERLLRDWNDVQGRFEKCVSAKEALETDLYKRFILVLNEKKTKIRSLHNKLLNAAQEREKDIKQEGETAICSEMTADRDPVYDESTDEESENQTDLSGLASAAVSKDDSIISSLDVTDIAPSRKRRQRMQRNLGTEPKMAPQENQLQEKENSRPDSSLPETSKKEHISAENMSLETLRNSSPEDLFDEI
